# T1: SOX9 (Homo sapiens, UniProt P48436)
# T1 construct: These dsDNA fragments were incubated with nuclear extract from GSC7 and GSC328; endogenous in cells; host or cells: nuclear extract of GSC7 and/or GSC328 (patient-derived glioblastoma stem cell lines)
# T1 sequence (P48436 1-509): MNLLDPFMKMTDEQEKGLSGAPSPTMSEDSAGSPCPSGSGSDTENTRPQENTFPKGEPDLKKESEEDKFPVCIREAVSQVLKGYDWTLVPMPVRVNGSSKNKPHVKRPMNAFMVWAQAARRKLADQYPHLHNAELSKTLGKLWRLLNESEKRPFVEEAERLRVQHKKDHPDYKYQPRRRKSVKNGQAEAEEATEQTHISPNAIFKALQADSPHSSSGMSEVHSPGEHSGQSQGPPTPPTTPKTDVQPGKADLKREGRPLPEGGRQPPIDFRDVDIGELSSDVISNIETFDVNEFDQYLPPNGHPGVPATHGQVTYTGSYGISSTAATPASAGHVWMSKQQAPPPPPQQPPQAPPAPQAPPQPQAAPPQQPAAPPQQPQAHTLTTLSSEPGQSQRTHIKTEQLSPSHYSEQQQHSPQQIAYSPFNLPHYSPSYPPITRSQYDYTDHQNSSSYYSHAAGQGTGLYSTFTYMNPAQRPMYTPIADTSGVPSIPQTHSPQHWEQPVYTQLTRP
# B1: ID1101: enhancer fragment, SEQ ID NO: 4 (nucleic acid)
# DNA: GTGAGTGTGACTCACATGCTGGCATCAGAGCCCCTCTTAGAGCTTAGAACACTGGGCCTCTGTCAGGCAAAGAAAAGGAGTCCCTATGAATAGCCATCTCCACAAATAGCAGTTACTGTCACTTCTTAAAAGACACAAGCATGGCTGGAGACCGGCACTG
# What was measured:
# [1] = biological target: T1, SOX9; assay: Biotinylated enhancer pull down from nuclear extract, SOX9 detection; format: binding; settings: random DNA 599 as negative control
# Description: The oligo was PCR-amplified using biotinylated primers. The PCR product was then SPRI purified to remove biotinylated primer dimers. These dsDNA fragments were incubated with nuclear extract from GSC7 and GSC328. They were then bound to streptavidin magnetic beads, washed three times and the frozen beads were sent for mass spectrometry analysis.
# All the buffers were prepared the day before, passed through a 22 μm filter (except the dialysis buffer) and left at 4° C. overnight. DTT and protease inhibitors were added just before use. […] The cell suspension was transferred to a glass Dounce homogenizer and dounced 40 times on ice. […] Dialysis buffer was changed (500 ml) and the dialysis was continued overnight at 4° C. The extract was collected in an 1.5 ml tube and spun at maximum speed for 15 min at 4° C. […] 100 μg aliquots were flash frozen in liquid nitrogen and stored at −80° C.
# Enhancers were amplified with 5′ biotinylated primers (Table 5) using PrimeStar Max (Takara) according to the manufacturer's instructions.
# Streptavidin Magnetic Bead (NEB, S1420S) were used according to the manufacturer's instructions. […]
# Next, we aimed to confirm that indeed SOX2 and SOX9 are binding to the enhancer and the SOX dimer motif. […] To filter for transcription factors a list of all transcription factors was obtained from UniProt and overlapped with the detected proteins in both cell lines.
# [2] = tested on: GSC7 cells; assay: Nano-Glo Dual-Luciferase Reporter (Nanoglo DLR) assay of enhancer activity, fold change to mCMV; format: cell-based, human; settings: expression fold change of the individual enhancer compared to mCMV
# Method in brief: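 160 bp enhancer fragments in NanoLuc reporter plasmids were co-transfected 1:10 with PGK-firefly luciferase into GSC7 cells using Lipofectamine LTX/Plus and read two days later. NanoLuc signal was normalised to firefly, then expressed as fold change to the empty mCMV vector.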
molecule,measurement,setting,value
B1,SOX9 interaction,[1],selectively interacts
same,Fold change (Median),[2],258.8 fold

# Source: patent US20260241035A1, “FUNCTIONAL NUCLEIC ACID MOLECULE AND METHOD” (THE UNIVERSITY COURT OF THE UNIVERSITY OF EDINBURGH, priority 2022, published 2026)
